In patent US7419670B2, “Method of treating arthritis with SERP-1 and an immunosuppressant” (Viron Therapeutics, Inc., priority 2000, dated 2008):

Assays:
[1] = tested on: Collagen-induced Arthritis (CIA) in Rats; test: CIA in rats: blinded radiographic scoring of the ankle joint at study termination; assay type: in vivo, rats (Louvain); conditions: mean ± SD; control group 4.27±1.68; p=0.02
Description: Twenty four rats (Louvain) weighing 125-150 g were housed at the UCLA vivarium facility and were fed standard laboratory chow and water.
Type II collagen, (CII) was prepared by pepsin treatment of chick sternal cartilage or was purchased from Genzyme (Boston, Mass.). Rats were anesthetized with ether and were immunized intradermally at several sites on the back, with 0.5 mg native CII solubilized in 0.1M acetic acid and emulsified in FIA (Difco, Detroit, Mich.). The signs and symptoms of rheumatoid arthritis developed over a period of ten days after immunization with collagen. (Oliver and Brahn, (1996) J. Rheumatol. 23, S44-56-60, incorporated herein by reference).
Cyclosporin at (4 mg/kg/d; sc) was administered by osmotic pump for the duration of the study. […]
The incidence and severity of chronic arthritis in SERP-1/CsA treated and untreated rats was evaluated via a number of study endpoints. During the experimental phase of the study, the individual hind limbs of each rat was evaluated daily and arthritis severity was quantified by assigning a score (0=normal, 4=maximum/hindpaw) based on increasing levels of swelling and periarticular erythema. The daily, arthritic severity scores for each rat were recorded from disease onset (day 10) until study termination (Table 1). […]

[2] = tested on: intimal fatty cellular proliferation associated with restenosis; conditions: rabbits following balloon angioplasty; cited from earlier work

B1: SERP-1: viral serine protease inhibitor produced by malignant rabbit fibroma virus and myxoma virus; sequence of SEQ ID NO: 1 (protein, listed as Myxoma virus)
chain: MKYLVLVLCLTSCACRDIGLWTFRYVYNESDNVVFSPYGLTSALSVLRIAAGGNTKREIDVPESVVEDSDAFLALRELFVDASVPLRPEFTAEFSSRFNTSVQRVTFNSENVKDVINSYVKDKTGGDVPRVLDASLDRDTKMLLLSSVRMKTSWRHVFDPSFTTDQPFYSGNVTYKVRMMNKIDTLKTETFTLRNVGYSVTELPYKRRQTAMLLVVPDDLGEIVRALDLSLVRFWIRNMRKDVCQVVMPKFSVESVLDLRDALQRLGVRDAFDPSRADFGQASPSNDLYVTKVLQTSKIEADERGTTASSDTAITLIPRNALTAIVANKPFMFLIYHKPTTTVLFMGTITKGEKVIYDTEGRDDVVSSV
- joint erosions (radiographic score) [1]: 2.58±1.88
- intimal fatty cellular proliferation associated with restenosis [2]: decrease
